The values that follow are results of earlier work, collected in article doi:10.1101/2024.07.26.605324.

“And” between values parts separate entries of the source, which are not always exact repeats. Equal entries are not always repeated.

The target of the series is His27 (position 27, …). The series can be described thus: NMR. The note with it: 243–263 K; membrane-bound tetramer, wild type with both His19 and His27 tetrads.

Regarding MLEPFQILSICSFILSALHFIAWTIGHLNQIKR [Influenza B virus matrix protein 2 (BM2) proton channel (Influenza B virus)], the pKa is 5.9±0.1 and 5.8±0.1.

Broadly, the pKa is the negative logarithm of the acid dissociation constant.
